Patent US20110300113A1, “Death Receptor CD95 Controls Neurogenesis of Adult Neural Stem Cells in Vivo and in Vitro” (DEUTSCHES KREBSFORSCHUNGSZENTRUM, priority 2006, published 2011)

What was measured:
[1] = target: T1, CD95 (Mus musculus, UniProt P25446); assay: Immunoprecipitation of CD95 / phosphotyrosine from stimulated NSCs; type: cell-based; settings: NSCs or developing neurons
T1 construct: pp60 and p85 association to CD95 increased at 1 minutes and 5 minutes after stimulation of NSCs with 1 U CD95L-T4; endogenous in cells; host or cells: mouse adult neural stem cells (C57BL6)
T1 sequence (P25446 22-327): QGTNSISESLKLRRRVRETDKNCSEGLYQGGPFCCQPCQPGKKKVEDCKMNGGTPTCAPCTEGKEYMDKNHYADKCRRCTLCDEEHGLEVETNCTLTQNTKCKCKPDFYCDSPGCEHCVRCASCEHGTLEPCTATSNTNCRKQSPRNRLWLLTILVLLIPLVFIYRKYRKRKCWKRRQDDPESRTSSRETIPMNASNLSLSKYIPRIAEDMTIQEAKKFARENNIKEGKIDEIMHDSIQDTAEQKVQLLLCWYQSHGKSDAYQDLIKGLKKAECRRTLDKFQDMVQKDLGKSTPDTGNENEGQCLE
Procedure: Immunoprecipitation. 2×10^7 cells were either treated with 1 activation unit (5-40 ng/ml depending on the batch of CD95L-T4) or 5000 ng/ml CD95L-T4 for 1 and 5 minutes (unless otherwise indicated) at 37° C. or left untreated, washed twice in PBS plus phosphatase inhibitors (NaF, NaN3, pNPP, NaPPi, β-Glycerolphosphate, 10 mM each and 2 mM orthovanadate), and subsequently lysed in buffer A (20 mM Tris/HCl, pH 7.5, 150 mM NaCl, 2 mM EDTA, 1 mM phenylmethylsulfonyl fluoride, protease inhibitor cocktail (Roche), 1% Triton X-100 (Serva, Heidelberg, Germany), 10% glycerol, and phosphatase inhibitors (NaF, NaN3, pNPP, NaPPi, 1′-Glycerolphosphate, 10 mM each and 2 mM orthovanadate) (stimulated condition) or lysed without treatment (unstimulated condition). Protein concentration was determined using BCA kit (Pierce). 1 mg of protein was immunoprecipitated overnight with either 5 μg anti-CD95 AB Jo2 or 5 μg anti-phospho tyrosine antibody (pTyr 4G10 (Upstate)) and 30 μl protein-A Sepharose. Beads were washed 5 times with 20 volumes of lysis buffer. The immunoprecipitates were mixed with 60 μl of Laemmli buffer and 30 μl were analyzed on either 15% or 7.5% SDS-PAGE. […]

[2] = tested on: human neural progenitor cells; assay: Neuronal differentiation (β-III-tubulin) of human neural progenitor cells after growth factor removal; type: cell-based
Procedure: Immunostainings. Immunohistochemistry and Immunocytochemistry were performed as previously described. Primary antibodies used were anti GFP (chicken) (Ayes Labs) 1:1000, anti NeuN (mouse), (Chemicon) 1:200, anti β-III-tubulin (mouse) (Chemicon 1:200), anti GFAP (mouse) (Chemicon 1:200), active-β-Catenin (mouse) (P-Ser37 or P-Thr41; 1:800) (Upstate), phosphorylated GSK3β (P-Ser9-GSK3β, 1:1000). The mouse Pax6 antibody developed by A. Kawakami was obtained from the Developmental Studies Hybridoma Bank developed under auspices of the NICHD and maintained by The University of Iowa, Department of Biological Sciences, Iowa City, Iowa 52242. Secondary antibodies used were goat anti-rabbit alexa 488 (Molecular Probes) 1:500, goat anti-mouse rhodamine X (Dianova) 1:200, Dapi (Sigma) 1:3000, donkey anti-chicken FITC (Dianova) 1:200.
Human neural progenitor generation and culture. The human ES cell line H9.2 was cultivated on mitotically inactivated mouse embryonic fibroblasts (MEFs) in Knockout Dulbecco's Modified Eagle Medium (KO-DMEM, Gibco) containing 20% Knockout Serum Replacement, 1% non-essential amino acids, 1 mM I-glutamine, 0.1 mM β-mercaptoethanol (all from Gibco), and 4 ng/ml human basic fibroblast growth factor (FGF-2, Invitrogen). Cells were routinely passaged every four days by treatment with 100 units collagenase IV (Gibco) for one hour. […]

B1: CD95L: the ligand for CD95 (APO-1/Fas) (protein, listed as Homo sapiens)
chain: MQQPFNYPYPQIYWVDSSASSPWAPPGTVLPCPTSVPRRPGQRRPPPPPPPPPLPPPPPPPPLPPLPLPPLKKRGNHSTGLCLLVMFFMVLVALVGLGLGMFQLFHLQKELAELRESTSQMHTASSLEKQIGHPSPPPEKKELRKVAHLTGKSNSRSMPLEWEDTYGIVLLSGVKYKKGGLVINETGLYFVYSKVYFRGQSCNNLPLSHKVYMRNSKYPQDLVMMEGKMMSYCTTGQMWARSSYLGAVFNLTSADHLYVNVSELSLVNFEESQTFFGLYKL
modifications: CHAIN (1)..(281) This feature is the amino acid sequence for CD95L protein. CD95L is a ligand for CD95. CD95 is APO-1/Fas and a member of the tumor necrosis factor receptor superfamily.
FADD recruitment to CD95 [1]: did not induce efficient recruitment of the adaptor molecule FADD | number of neurons / β-III-tubulin positive cells [2]: strikingly increased number of neurons
